Assay results reported in publication PMC4824110.

Biological target: T1, Rrp41 D182A (catalytically inactive);Rrp42 (Sulfolobus solfataricus;Sulfolobus …, UniProt Q9UXC2;Q9UXC0 ;, D182A|)
T1 sequence 1: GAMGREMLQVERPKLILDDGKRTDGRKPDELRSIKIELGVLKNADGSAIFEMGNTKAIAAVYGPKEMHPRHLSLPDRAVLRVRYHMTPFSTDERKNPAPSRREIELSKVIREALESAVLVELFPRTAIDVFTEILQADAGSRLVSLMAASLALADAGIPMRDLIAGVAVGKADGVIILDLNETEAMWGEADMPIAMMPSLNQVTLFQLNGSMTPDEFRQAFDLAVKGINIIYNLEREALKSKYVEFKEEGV
T1 sequence 2: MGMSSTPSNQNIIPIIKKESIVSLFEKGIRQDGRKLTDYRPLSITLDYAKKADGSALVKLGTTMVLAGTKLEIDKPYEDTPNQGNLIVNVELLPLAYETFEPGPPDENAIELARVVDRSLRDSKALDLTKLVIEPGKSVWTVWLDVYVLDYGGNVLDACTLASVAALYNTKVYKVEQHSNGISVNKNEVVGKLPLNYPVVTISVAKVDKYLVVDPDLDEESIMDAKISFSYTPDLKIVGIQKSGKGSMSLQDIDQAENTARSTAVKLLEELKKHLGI
Assay: fluorescence anisotropy

B1: fluorescent 32A (FA RNA) (structured_RNA)
RNA: GCCCCCCCCGAAAGGGGGGGGAAAAAAAAAAAAAAAAAAAAAUAAAAAAAAAAAGCU
modifications: 4-thiouridine at position 43
Which Kd does the source give for B1 here?
Its Kd is 11.7 ± 0.9 nM.
